Tests used:
platelet-poor plasma = assay: Thrombin generation monitoring by Thrombinoscope in platelet-poor plasma; format: biochemical, human; details: for effect on onset and peak of thrombin generation: anticoagulant alone in plasma
Description: Fluorogenic substrate (Z-Gly-Gly-Arg-AMC HCl, molecular weight 616.07) for thrombin generation assay was obtained from Bachem (Switzerland). HEPES (N-2-hydroxyethyl piperazine-N′-2-ethanesulfonic acid), CaCl2, BSA (bovine serum albumin) and DMSO (dimethyl sulfoxide) were from Sigma (Sigma, St Louis, Mo.). Tissue factor was dissolved in 10 ml sterile water and then further diluted with working HEPES buffer (20 mM HEPES, 140 mM NaCl, 5 mg/ml BSA), (1:75). For the preparation of Fluca-buffer 1.75 ml HEPES buffer (pH 7.35, 20 mM HEPES, 60 mg/ml BSA was added to 0.2 ml of 1 M CaCl2 in a glass test tube, mixed, and warmed up for few minutes at 37° C. Just before use 50 μl of 100 mM fluorogenic substrate made in DMSO was added to the HEPES-CaCl2 solution and mixed to dissolve. This buffer now contains 2.5 mM substrate and 100 mM CaCl2.
(§1) For plasma collection, whole blood samples (5 ml, in 3.2% trisodium citrate) were obtained after institutional approval and informed written consent from 6 volunteers that had not received any medication in the preceding 2 weeks. For APTT and thrombin generation experiments blood was centrifuged to obtain platelet poor plasma (PPP) for 20 min at 3000×g. PPP was used immediately or stored for not more than a couple of days at −20° C. For TEG® measurements, whole blood in citrate was used after recalcification within 5 min from collection. In all experiments, the final concentration of recombinant thrombin mutant was 5 μg/ml.
In order to evaluate this complex regulation of thrombin generation, the Thrombinoscope® system, which enables automated acquisition of thrombin generation time courses in platelet-rich plasma or in platelet-poor plasma (Hemker et al. (2003) Pathophysiology of Haemostasis & Thrombosis, 33:4-15). The method for the automated estimation of endogenous thrombin potential using a commercially available fluorogenic substrate (Z-GlyGly-Arg-AMC) has been described in detail elsewhere (Hemker et al. (2003) Pathophysiology of Haemostasis & Thrombosis, 33:4-15). Briefly, for the thrombin generation experiments, 80 μl of PPP, and 20 μl of the thrombin generation trigger are added to wells of 96-well microtiter plate (Microfluor2, Labsystems, Finland), followed by 20 μl of substrate-calcium chloride buffer. The reaction is monitored using microplate fluorometer (Fluoroskan Ascent, Labsystems, Finland) set at 390 nm (excitation wavelength) and 460 nm (emission wavelength). […] Additionally, heparin (0.2 or 0.5 U/ml) was also evaluated. Heparin reversal with an appropriate concentration of protamine was used for comparison (1 mg of protamine for each 100 units (1 mg) of heparin). To evaluate the effects of the thrombin mutant on protein C activation (Regnault et al. (2003) Thrombosis and Haemostasis, 89:208-212), soluble thrombomodulin (0.75 μg/ml, final concentration) was added to the sample plasma containing the thrombin mutant.

whole blood = assay: Thrombelastography (TEG) of clot formation in recalcified whole blood; format: biochemical, human; details: for effect on TEG amplitude (strength of clot): anticoagulant alone: bivalirudin 5 μg/ml, lepirudin 1 μg/ml, argatroban 0.5 μg/ml
Description: as §1
The viscoelastic measurement of clot formation was evaluated using Thrombelastogarphy (TEG®, Haemoscope, Niles, Ill.). […] For TEG® measurements, 360 μl aliquots of the samples were transferred to disposable cups containing […] 0.4 M CaCl2. Effects of W215A/E217A on TEG® variables were evaluated after adding this thrombin mutant (5 μg/ml, final concentration) to respective samples. The TEG® variables, the reaction time (in minutes) which represents the onset of clot formation, and maximum amplitude (in mm) which reflects the strength of clot were compared for different groups (Kawasaki et al. (2004) Anesthesia & Analgesia, 99:1440-1444).

[1] = tested on: lepirudin (Refludan, Berlex)
[2] = tested on: bivalirudin (Angiomax, Medicines Company)
[3] = off-pump coronary surgery, cited from earlier work
α-thrombin = α-thrombin (Homo sapiens, UniProt P00734); details: association constant for α-thrombin and inhibitor; cited from earlier work

## CC1CNc2c(cccc2S(=O)(=O)N[C@@H](CCCNC(=N)N)C(=O)N2CC[C@@H](C)C[C@@H]2C(=O)O)C1 (stereo partly drawn) [Argatroban, argatroban]
platelet-poor plasma
  effect on onset and peak of thrombin generation: prolonged the onset and reduced the peak
platelet-poor plasma; argatroban at 0.5 and 1 μg/ml, with W215A/E217A added (FIG. 6D)
  peak thrombin level: > 100 nM
Whole blood
  effect on TEG amplitude (strength of clot): reduced

## catalytic-site blocked thrombin (thrombin saturated with Phe-Pro-Arg-chlormethylketone)
[1]
  activated partial thromboplastin time (APTT) in lepirudin-treated plasma: The active site blocked thrombin (FPR-TH) had no effect on APTT prolonged with either DTIs or heparin.
[2]
  activated partial thromboplastin time (APTT) in bivalirudin-treated plasma: The active site blocked thrombin (FPR-TH) had no effect on APTT prolonged with either DTIs or heparin.

## bivalirudin
platelet-poor plasma
  effect on onset and peak of thrombin generation: prolonged the onset of thrombin generation, but not the peak level
[3]; n=50
  range of blood loss: 320-4,909 ml
[3]
  12-hour post-operative chest tube drainage, median: 793 mL
α-thrombin
  kon: 430 10^6 M^−1s^−1
Whole blood
  effect on TEG amplitude (strength of clot): minimally affected

## human thrombin mutant W215A/E217A
[1]
  TEG reaction time and amplitude in lepirudin-treated whole blood: With addition of W215A/E217A (5 µg/ml), both reaction time and amplitude variables were reversed to normal for all DTIs
  activated partial thromboplastin time (APTT) in lepirudin-treated plasma: The addition of W215A/E217A to plasma shifted APTT values toward normal ranges.
  onset (latency) of thrombin generation, Thrombinoscope, lepirudin-treated plasma: W215A/E217A was effective in shortening prolonged latency of thrombin generation.
[2]
  TEG reaction time and amplitude in bivalirudin-treated whole blood: With addition of W215A/E217A (5 µg/ml), both reaction time and amplitude variables were reversed to normal for all DTIs
  activated partial thromboplastin time (APTT) in bivalirudin-treated plasma: The addition of W215A/E217A to plasma shifted APTT values toward normal ranges.
  onset (latency) of thrombin generation, Thrombinoscope, bivalirudin-treated plasma: W215A/E217A was effective in shortening prolonged latency of thrombin generation.

## lepirudin
platelet-poor plasma
  effect on onset and peak of thrombin generation: prolonged the onset of thrombin generation, but not the peak level
α-thrombin
  kon: 290 10^6 M^−1s^−1
Whole blood
  effect on TEG amplitude (strength of clot): minimally affected

## Protamine sulfate
platelet-poor plasma; heparin 0.2 U/ml, W215A/E217A 5 μg/ml or protamine sulfate 2 μg/ml
  effect on thrombin generation in the presence of heparin: reversed the peak level
Whole blood; protamine sulfate 5 μg/ml, heparin 0.5 U/ml
  reversal of heparin on TEG (onset, clot strength): restores the onset completely, and to a lesser extent clot strength

Source: patent US20100158890A1, “USE OF THROMBIN MUTANTS TO INHIBIT THE ANTICOAGULATION EFFECT OF THROMBIN INHIBITORS” (priority 2006, published 2010)
